Numbering of substitutions follows the chain as printed. Each block holds one binder with its values, some of them ahead of it.
Key:
[1] = biological target: T1, human CD4, cell-expressed (human, UniProt P01730 26-458); assay: flow cytometry on MOLM-13 cells (CD4, no IL12R or IL23R), lower left panel
T1 construct: whole, on cells

[2] = biological target: T2, human IL12Rβ1 extracellular domain Fc-fusion (human, UniProt P42701 24-545); assay: competition ELISA, coated IL-23 + IL12Rβ1-Fc
T2 construct: extracellular domain; bought; also called IL12Rβ1-Fc; hIL-12Rβ1-Fc; not shown: Fc part, captured by anti-hIgG

[3] = biological target: T2, human IL12Rβ1 extracellular domain …; assay: competition ELISA, ratio to monovalent IL12Rb1#30
[4] = biological target: T1, human CD4, cell-expressed; assay: flow cytometry on activated T cells of donor D838 (very high CD4, moderate IL12R), upper right panel
[5] = biological target: T2, human IL12Rβ1 extracellular domain …; assay: competition ELISA, coated IL-12 + IL12Rβ1-Fc
[6] = biological target: T3, human IL12Rβ1, cell-expressed (human, UniProt P42701 24-662); assay: cell-based or functional assay
[7] = biological target: T2, human IL12Rβ1 extracellular domain …; assay: competition ELISA, ratio to monovalent IL12Rb1#30; remark: listed apart in the source
[8] = biological target: T3, human IL12Rβ1, cell-expressed; assay: cell-based or functional assay; remark: listed apart in the source
[9] = biological target: T2, human IL12Rβ1 extracellular domain …; assay: competition ELISA, ratio to monovalent IL12Rb1#31
[10] = biological target: T2, human IL12Rβ1 extracellular domain …; assay: competition ELISA, ratio to monovalent IL12Rb1#31; remark: listed apart in the source
[11] = biological target: T1, human CD4, cell-expressed; assay: flow cytometry on activated T cells of donor D838 (very high CD4), lower left panel
[12] = biological target: T1, human CD4, cell-expressed; assay: flow cytometry on MOLM-13 cells (CD4, no IL12R or IL23R), upper right panel
[13] = biological target: T4, human IL-23R extracellular domain Fc-fusion (human, UniProt Q5VWK5 24-355); assay: competition ELISA, ratio to monovalent IL23R#20
T4 construct: extracellular domain; bought; also called IL-23R-Fc
T4 sequence (looked up): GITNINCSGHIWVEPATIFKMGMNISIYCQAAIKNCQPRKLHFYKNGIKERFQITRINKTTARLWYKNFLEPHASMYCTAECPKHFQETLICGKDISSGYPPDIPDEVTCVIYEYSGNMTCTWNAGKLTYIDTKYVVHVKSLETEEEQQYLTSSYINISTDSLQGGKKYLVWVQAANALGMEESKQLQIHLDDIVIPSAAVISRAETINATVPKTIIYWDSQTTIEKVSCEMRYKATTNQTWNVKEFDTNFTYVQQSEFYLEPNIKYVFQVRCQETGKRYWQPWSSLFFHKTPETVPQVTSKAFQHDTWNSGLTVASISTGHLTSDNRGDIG

[14] = biological target: T4, human IL-23R extracellular domain …; assay: competition ELISA, coated IL-23 + IL-23R-Fc
[15] = biological target: T5, human IL-23R, cell-expressed (human, UniProt Q5VWK5 24-629); assay: cell-based or functional assay
T5 sequence (looked up): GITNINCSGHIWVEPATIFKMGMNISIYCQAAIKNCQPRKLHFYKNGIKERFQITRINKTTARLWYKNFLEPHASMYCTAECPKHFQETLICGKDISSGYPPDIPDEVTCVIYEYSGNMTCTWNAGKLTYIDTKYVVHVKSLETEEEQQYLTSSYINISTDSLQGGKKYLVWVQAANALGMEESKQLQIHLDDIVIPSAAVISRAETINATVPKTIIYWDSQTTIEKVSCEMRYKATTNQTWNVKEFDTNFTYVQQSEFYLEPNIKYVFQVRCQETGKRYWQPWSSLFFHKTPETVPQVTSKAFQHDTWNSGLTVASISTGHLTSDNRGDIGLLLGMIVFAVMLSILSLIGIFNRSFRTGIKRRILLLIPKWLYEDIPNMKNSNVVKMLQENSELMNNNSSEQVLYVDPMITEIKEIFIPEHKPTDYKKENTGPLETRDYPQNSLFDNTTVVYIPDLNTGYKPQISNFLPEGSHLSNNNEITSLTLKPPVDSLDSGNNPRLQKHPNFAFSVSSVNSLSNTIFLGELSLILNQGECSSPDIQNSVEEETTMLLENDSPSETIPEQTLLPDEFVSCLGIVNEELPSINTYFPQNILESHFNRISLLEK

EC50 (read off the curve) [1]: ~1 nM
IC50 [2]: 13 nM
EC50 (read off the curve) [4]: ~1 nM
fold ctrl [9]: 0.8 fold
IC50 [5]: 24 nM
fold ctrl [10]: 0.9 fold
IC50, IFNγ release, PBMC D840 [6]: 1.9 nM
IC50, IFNγ release, T cells D839 [6]: 4.1 nM
fold ctrl, IFNγ release, PBMC D840 [6]: 41 fold
IC50, IL-17 release, PBMC D840 [8]: 0.23 nM
fold ctrl, IL-17 release [8]: 565 fold
B4: IL12Rb1#31-35GS-CD4#8 (bispecific antibody)
chain: EVQLVESGGGLVQTGGSLRLSCAASGRTPSIIAMGWFRQTPGKEREFVGEIILSKGFTYYADSVKGRFTISRANAKNTITMYLQMNSLKSEDTAVYYCAARQNWSGNPTRTNEYEYWGQGTLVTVSSGGGGSGGGGSGGGGSGGGGSGGGGSGGGGSGGGGSEVQLVESGGGSVQPGGSLTLSCGTSGRTFNVMGWFRQAPGKEREFVAAVRWSSTGIYYTQYADSVKSRFTISRDNAKNTVYLEMNSLKPEDTAVYYCAADTYNSNPARWDGYDFRGQGTLVTVSS
notes: also called BI#47; T023200047

EC50 (read off the curve) [11]: ~1 nM
EC50 (read off the curve) [12]: ~1 nM
fold ctrl [13]: 1.5 fold
IC50 [14]: 11 nM
B5: IL23R#20-35GS-CD4#8 (bispecific antibody)
chain: EVQLVESGGGLVQAGGSLRLSCAASGRTFSSYAMGWFRQAPGKDREFVAAISWIGESTYYADSVKGRFTISRDNAKNTVYLRMNSLKPEDTAVYYCAADLYYTAYVAAADEYDYWGQGTLVTVSSGGGGSGGGGSGGGGSGGGGSGGGGSGGGGSGGGGSEVQLVESGGGSVQPGGSLTLSCGTSGRTFNVMGWFRQAPGKEREFVAAVRWSSTGIYYTQYADSVKSRFTISRDNAKNTVYLEMNSLKPEDTAVYYCAADTYNSNPARWDGYDFRGQGTLVTVSS
notes: also called BI#43; T023200043

EC50 (read off the curve) [11]: ~1 nM
EC50 (read off the curve) [12]: ~1 nM
fold ctrl [13]: 1.1 fold
IC50 [14]: 15 nM
IC50, IL-17 release, PBMC D840 [15]: 22 nM
B6: CD4#8-35GS-IL23R#20 (bispecific antibody)
chain: EVQLVESGGGSVQPGGSLTLSCGTSGRTFNVMGWFRQAPGKEREFVAAVRWSSTGIYYTQYADSVKSRFTISRDNAKNTVYLEMNSLKPEDTAVYYCAADTYNSNPARWDGYDFRGQGTLVTVSSGGGGSGGGGSGGGGSGGGGSGGGGSGGGGSGGGGSEVQLVESGGGLVQAGGSLRLSCAASGRTFSSYAMGWFRQAPGKDREFVAAISWIGESTYYADSVKGRFTISRDNAKNTVYLRMNSLKPEDTAVYYCAADLYYTAYVAAADEYDYWGQGTLVTVSS
notes: also called BI#44; T023200044

Continued, binder first:

B1: CD4#8-35GS-IL12Rb1#30 (bispecific antibody)
chain: EVQLVESGGGSVQPGGSLTLSCGTSGRTFNVMGWFRQAPGKEREFVAAVRWSSTGIYYTQYADSVKSRFTISRDNAKNTVYLEMNSLKPEDTAVYYCAADTYNSNPARWDGYDFRGQGTLVTVSSGGGGSGGGGSGGGGSGGGGSGGGGSGGGGSGGGGSEVQLVESGGGLVQTGGSLRLSCAASGRTPRLVAMGWFRQTPGKEREFVGEIILSKGFTYYADSVKGRFTISRVNAKNTITMYLQMNSLKSEDTAVYYCAGRQNWSGSPARTNEYEYWGQGTLVTVSS
notes: also called BI#40; T023200040
EC50 (read off the curve) [1]: ~1 nM
IC50 [2]: 3.6 nM
fold ctrl [3]: 0.5 fold
EC50 (read off the curve) [4]: ~1 nM
IC50 [5]: 7.3 nM
IC50, IFNγ release, PBMC D840 [6]: 0.36 nM
IC50, IFNγ release, T cells D839 [6]: 0.28 nM
fold ctrl, IFNγ release, PBMC D840 [6]: 47 fold
fold ctrl, IFNγ release, T cells D839 [6]: 429 fold
fold ctrl [7]: 0.4 fold
IC50, IL-17 release, PBMC D840 [8]: 0.035 nM
fold ctrl, IL-17 release [8]: 1630 fold

B2: CD4#8-35GS-IL12Rb1#31 (bispecific antibody)
chain: B1 chain with R190S, L191I, V192I, V233A, G260A, S267N, A269T
notes: also called BI#41; T023200041
EC50 (read off the curve) [1]: ~1 nM
IC50 [2]: 15 nM
EC50 (read off the curve) [4]: ~1 nM
fold ctrl [9]: 0.7 fold
IC50 [5]: 28 nM
fold ctrl [10]: 0.8 fold
IC50, IFNγ release, PBMC D840 [6]: 2.2 nM
IC50, IFNγ release, T cells D839 [6]: 1.7 nM
fold ctrl, IFNγ release, PBMC D840 [6]: 50 fold
IC50, IL-17 release, PBMC D840 [8]: 0.17 nM
fold ctrl, IL-17 release [8]: 1710 fold

B3: IL12Rb1#30-35GS-CD4#8 (bispecific antibody)
chain: B4 chain with S30R, I31L, I32V, A73V, A100G, N107S, T109A
notes: also called BI#46; T023200046
EC50 (read off the curve) [1]: ~1 nM
IC50 [2]: 3 nM
fold ctrl [3]: 0.6 fold
EC50 (read off the curve) [4]: ~1 nM
IC50 [5]: 6.2 nM
IC50, IFNγ release, PBMC D840 [6]: 0.45 nM
IC50, IFNγ release, T cells D839 [6]: 0.29 nM
fold ctrl, IFNγ release, PBMC D840 [6]: 38 fold
fold ctrl, IFNγ release, T cells D839 [6]: 552 fold
fold ctrl [7]: 0.5 fold
IC50, IL-17 release, PBMC D840 [8]: 0.016 nM
fold ctrl, IL-17 release [8]: 875 fold

Reference: patent US20160251440A1 (Ablynx, published 2016)
